Laboratory results as given in patent US20060241051A1 (Takeda / Millennium, published 2006).
Where two headings read alike, the source gives them in different places. Numbered stars: 1 amine (or outer) side, 2 acyl side, 3 side chain; on linkers, the order of the positions; unused ones are H or OH. Square brackets hold non-standard residues; d marks the D form. Ends that are not written are not given here. * marks the point of attachment. Ala(2-Qui) = 2-quinolylalanine, O=C([C@H](Cc1ccc2ccccc2n1)N[*:1])[*:2]; Phe(4-F) = N[C@@H](Cc1ccc(F)cc1)C(=O)O; Arg(Me) = CNC(=N)NCCC[C@H](N)C(=O)O; Fmoc = O=C(OCC1c2ccccc2-c2ccccc21)*; Lys(Me2) = CN(C)CCCC[C@H](N)C(=O)O; 4Pal = N[C@@H](Cc1ccncc1)C(=O)O; d3Pal = N[C@H](Cc1cccnc1)C(=O)O; d4Pal = N[C@H](Cc1ccncc1)C(=O)O; Cha = N[C@@H](CC1CCCCC1)C(=O)O; Orn = NCCC[C@H](N)C(=O)O; Boc = CC(C)(C)OC(=O)*; azaGly = NNC(=O)O

Legend:
[1] = target: human OT7T175 (metastin receptor) (human) (UniProt Q969F8); test: cell-based or functional assay
human OT7T175 (metastin receptor) (human), sequence (Q969F8 whole entry L364H): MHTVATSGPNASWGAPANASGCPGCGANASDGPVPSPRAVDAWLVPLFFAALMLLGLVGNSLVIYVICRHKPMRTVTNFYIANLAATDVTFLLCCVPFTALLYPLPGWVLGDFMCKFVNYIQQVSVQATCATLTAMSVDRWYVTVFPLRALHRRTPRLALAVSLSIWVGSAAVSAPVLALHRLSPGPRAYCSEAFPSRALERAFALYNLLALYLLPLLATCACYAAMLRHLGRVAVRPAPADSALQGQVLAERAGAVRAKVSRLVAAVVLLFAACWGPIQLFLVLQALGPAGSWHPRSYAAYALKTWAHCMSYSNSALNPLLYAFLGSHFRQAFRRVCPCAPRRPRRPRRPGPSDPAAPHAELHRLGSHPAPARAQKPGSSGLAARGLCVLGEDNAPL

[2] = target: T1, human OT7T175 (metastin receptor) (human, UniProt Q969F8 1-398); test: cell-based or functional assay
T1 sequence (Q969F8 whole entry L364H): as above

[3] = target: T1, human OT7T175 (metastin receptor); test: FMAT competition with Cy-5-labeled metastin (40-54), hOT7T175-expressed CHO cells
[4] = target: T1, human OT7T175 (metastin receptor); test: cell-based or functional assay; remark: listed apart in the source

Row | Binder | intracellular Ca ion level-increasing activity (FLIPR) (specific activity to metastin (1-54)) [1] | intracellular Ca ion level-increasing activity (FLIPR) [2] | IC50 [3] [nM] | intracellular Ca ion level-increasing activity (FLIPR) [4]
1 | [dY]NWNSFAL[Arg(Me)]F-NH2 (N-terminus assumed; SMILES CNC(=N)NCCC[C@H](NC(=O)[C@H](CC(C)C)NC(=O)[C@H](C)NC(=O)[C@H](Cc1ccccc1)NC(=O)[C@H](CO)NC(=O)[C@H](CC(N)=O)NC(=O)[C@H](Cc1c[nH]c2ccccc12)NC(=O)[C@H](CC(N)=O)NC(=O)[C@H](N)Cc1ccc(O)cc1)C(=O)N[C@@H](Cc1ccccc1)C(N)=O) [Compound No. 173: [D-Tyr1,Ala7,Arg(Me)9]MS10] | 1 |  |  | 
2 | YNWNSFGLRW-NH2 [Compound No. 134: [Trp10]MS10] |  | 30 specific activity to metastin (1-54) | 110 | 
3 | [dY]NWNTF[azaGly]L[Arg(Me)]F-NH2 [Compound No. 297: [D-Tyr1,Thr5,AzaGly7,Arg(Me)9]MS10] |  |  | 0.93 | 1 specific activity to metastin (1-54)
4 | [dY][dN]WNTF[azaGly]L[Arg(Me)]F-NH2 [Compound No. 298: [D-Tyr1,D-Asn2,Thr5,AzaGly7,Arg(Me)9]MS10] |  |  | 0.25 | 5 specific activity to metastin (1-54)
5 | [dY][dN]TNSF[azaGly]L[Arg(Me)][Phe(4-F)]-NH2 [Compound No. 316: [D-Tyr1,D-Asn2,Thr3,AzaGly7,Arg(Me)9,Phe(4F)10]MS10] |  |  | 26 | 1 specific activity to metastin (1-54)
6 | [dY]NANSFGL[Arg(Me)]F-NH2 (N-terminus assumed; SMILES CNC(=N)NCCC[C@H](NC(=O)[C@H](CC(C)C)NC(=O)CNC(=O)[C@H](Cc1ccccc1)NC(=O)[C@H](CO)NC(=O)[C@H](CC(N)=O)NC(=O)[C@H](C)NC(=O)[C@H](CC(N)=O)NC(=O)[C@H](N)Cc1ccc(O)cc1)C(=O)N[C@@H](Cc1ccccc1)C(N)=O) [Compound No. 169: [D-Tyr1,Ala3,Arg(Me)9]MS10] |  | 2 specific activity to metastin (1-54) | 160 | 
7 | [dY]NSNSFGL[Arg(Me)]F-NH2 (N-terminus assumed; SMILES CNC(=N)NCCC[C@H](NC(=O)[C@H](CC(C)C)NC(=O)CNC(=O)[C@H](Cc1ccccc1)NC(=O)[C@H](CO)NC(=O)[C@H](CC(N)=O)NC(=O)[C@H](CO)NC(=O)[C@H](CC(N)=O)NC(=O)[C@H](N)Cc1ccc(O)cc1)C(=O)N[C@@H](Cc1ccccc1)C(N)=O) [Compound No. 170: [D-Tyr1,Ser3,Arg(Me)9]MS10] |  | 1 specific activity to metastin (1-54) | 260 | 
8 | [dY]NWNSFGL[Arg(Me)]W-NH2 (N-terminus assumed; SMILES CNC(=N)NCCC[C@H](NC(=O)[C@H](CC(C)C)NC(=O)CNC(=O)[C@H](Cc1ccccc1)NC(=O)[C@H](CO)NC(=O)[C@H](CC(N)=O)NC(=O)[C@H](Cc1c[nH]c2ccccc12)NC(=O)[C@H](CC(N)=O)NC(=O)[C@H](N)Cc1ccc(O)cc1)C(=O)N[C@@H](Cc1c[nH]c2ccccc12)C(N)=O) [Compound No. 174: [D-Tyr1,Arg(Me)9,Trp10]MS10] |  | 10 specific activity to metastin (1-54) | 420 | 
9 | Boc-YNWFGLRF-NH2 (SMILES CC(C)C[C@H](NC(=O)CNC(=O)[C@H](Cc1ccccc1)NC(=O)[C@H](Cc1c[nH]c2ccccc12)NC(=O)[C@H](CC(N)=O)NC(=O)[C@H](Cc1ccc(O)cc1)NC(=O)OC(C)(C)C)C(=O)N[C@@H](CCCNC(=N)N)C(=O)N[C@@H](Cc1ccccc1)C(N)=O) [Compound No. 87: des(4-5)-Boc-MS10] | 1 |  |  | 
10 | [dY]NWNSFGL[Arg(Me)]F-NH2 (also: Phe6-Gly7 bond replaced by NHCO (retro-inverso)) [Compound No. 319: [6Ψ7,NHCO,D-Tyr1,Arg(Me)9]MS10] |  |  |  | 3 specific activity to metastin (1-54)
11 | Fmoc-NSFGL[Arg(Me)]F-NH2 [Compound No. 144: des(1-3)-Fmoc-[Arg(Me)9]MS10] |  | 1 specific activity to metastin (1-54) |  | 
12 | [d3Pal][dY][Cha]NSF[azaGly]L[Arg(Me)]F-NH2 (N-terminus assumed; SMILES CNC(=N)NCCC[C@H](NC(=O)[C@H](CC(C)C)NC(=O)NNC(=O)[C@H](Cc1ccccc1)NC(=O)[C@H](CO)NC(=O)[C@H](CC(N)=O)NC(=O)[C@H](CC1CCCCC1)NC(=O)[C@@H](Cc1ccc(O)cc1)NC(=O)[C@H](N)Cc1cccnc1)C(=O)N[C@@H](Cc1ccccc1)C(N)=O) [Compound No. 291: [D-Pya(3)1,D-Tyr2,Cha3,AzaGly7,Arg(Me)9]MS10] |  |  | 0.41 | 2 specific activity to metastin (1-54)
13 | {4‑Imidazoleacetyl}-NSF[azaGly]L[Arg(Me)]F-NH2 [Compound No. 323: des(1-3)-4-Imidazoleacetyl-[AzaGly7,Arg(Me)9]MS10] |  |  | 280 | 1 specific activity to metastin (1-54)
14 | Y[dN][4Pal]NSF[azaGly]L[Arg(Me)]F-NH2 [Compound No. 304: [D-Asn2,Pya(4) 3,AzaGly7,Arg(Me)9]MS10] |  |  | 5 | 3 specific activity to metastin (1-54)
15 | YNWNSFGL[Lys(Me2)]F-NH2 [Compound No. 98: [Lys(Me2)9]MS10] | 0.5 |  |  | 
16 | YNWFGLRF-NH2 [Compound No. 88: des(4-5)-MS10] | 1 |  |  | 
17 | YNWNSFGLXF (Har(Me)9; C-terminal amide) [Compound No. 312: [Har(Me)9]MS10] |  |  | 100 | 3 specific activity to metastin (1-54)
18 | YNWNSFGLXF (Nar(Me)9; C-terminal amide) [Compound No. 311: [Nar(Me)9]MS10] |  |  | 470 | 1 specific activity to metastin (1-54)
19 | [dY]NWNSFGL[Arg(Me)]F-NH2 (also: Phe6-Gly7 thioamide (CSNH), also called [6y7,CSNH,D-Tyr1,Arg(Me)9]MS10) [Compound No. 296: [6Ψ7,CSNH,D-Tyr1,Arg(Me)9]MS10] |  |  | 14 | 3 specific activity to metastin (1-54)
20 | YNWNSFGL[Orn]F-NH2 (N-terminus assumed; SMILES CC(C)C[C@H](NC(=O)CNC(=O)[C@H](Cc1ccccc1)NC(=O)[C@H](CO)NC(=O)[C@H](CC(N)=O)NC(=O)[C@H](Cc1c[nH]c2ccccc12)NC(=O)[C@H](CC(N)=O)NC(=O)[C@@H](N)Cc1ccc(O)cc1)C(=O)N[C@@H](CCCN)C(=O)N[C@@H](Cc1ccccc1)C(N)=O) [Compound No. 314: [Orn9]MS10] |  |  | 470 | 1 specific activity to metastin (1-54)
21 | [dY]NWQSFGL[Arg(Me)]F-NH2 (N-terminus assumed; SMILES CNC(=N)NCCC[C@H](NC(=O)[C@H](CC(C)C)NC(=O)CNC(=O)[C@H](Cc1ccccc1)NC(=O)[C@H](CO)NC(=O)[C@H](CCC(N)=O)NC(=O)[C@H](Cc1c[nH]c2ccccc12)NC(=O)[C@H](CC(N)=O)NC(=O)[C@H](N)Cc1ccc(O)cc1)C(=O)N[C@@H](Cc1ccccc1)C(N)=O) [Compound No. 209: [D-Tyr1,Gln4,Arg(Me)9]MS10] | 0.5 |  |  | 
22 | [dY]N[d4Pal]NSF[azaGly]L[Arg(Me)]F-NH2 [Compound No. 302: [D-Tyr1,D-Pya(4) 3,AzaGly7,Arg(Me)9]MS10] |  |  | 7.7 | 2 specific activity to metastin (1-54)
23 | YNWNSXGLRF (D-Tyr1; Cha6; Arg(Me)9; C-terminal amide) [Compound No. 172: [D-Tyr1,Cha6,Arg(Me)9]MS10] | 1 |  |  | 
24 | [d4Pal][dN][Cha]NSF[azaGly]L[Arg(Me)]F-NH2 (N-terminus assumed; SMILES CNC(=N)NCCC[C@H](NC(=O)[C@H](CC(C)C)NC(=O)NNC(=O)[C@H](Cc1ccccc1)NC(=O)[C@H](CO)NC(=O)[C@H](CC(N)=O)NC(=O)[C@H](CC1CCCCC1)NC(=O)[C@@H](CC(N)=O)NC(=O)[C@H](N)Cc1ccncc1)C(=O)N[C@@H](Cc1ccccc1)C(N)=O) [Compound No. 306: [D-Pya(4)1,D-Asn2,Cha3,AzaGly7,Arg(Me)9]MS10] |  |  | 4.4 | 2 specific activity to metastin (1-54)
25 | [dY][dN][4Pal]NSF[azaGly]L[Arg(Me)][Phe(4-F)]-NH2 (N-terminus assumed; SMILES CNC(=N)NCCC[C@H](NC(=O)[C@H](CC(C)C)NC(=O)NNC(=O)[C@H](Cc1ccccc1)NC(=O)[C@H](CO)NC(=O)[C@H](CC(N)=O)NC(=O)[C@H](Cc1ccncc1)NC(=O)[C@@H](CC(N)=O)NC(=O)[C@H](N)Cc1ccc(O)cc1)C(=O)N[C@@H](Cc1ccc(F)cc1)C(N)=O) [Compound No. 317: [D-Tyr1,D-Asn2,Pya(4) 3,AzaGly7,Arg(Me)9,Phe(4F)10]MS10] |  |  | 2.1 | 1 specific activity to metastin (1-54)
26 | [dY]NWSSFGL[Arg(Me)]F-NH2 (N-terminus assumed; SMILES CNC(=N)NCCC[C@H](NC(=O)[C@H](CC(C)C)NC(=O)CNC(=O)[C@H](Cc1ccccc1)NC(=O)[C@H](CO)NC(=O)[C@H](CO)NC(=O)[C@H](Cc1c[nH]c2ccccc12)NC(=O)[C@H](CC(N)=O)NC(=O)[C@H](N)Cc1ccc(O)cc1)C(=O)N[C@@H](Cc1ccccc1)C(N)=O) [Compound No. 207: [D-Tyr1,Ser4,Arg(Me)9]MS10] | 0.5 |  |  | 
27 | YNWNSFGLXF (Nar9; C-terminal amide) [Compound No. 310: [Nar9]MS10] |  |  | 310 | 3 specific activity to metastin (1-54)
28 | [dY]N[Ala(2-Qui)]NSF[azaGly]L[Arg(Me)]F-NH2 (N-terminus assumed; SMILES CNC(=N)NCCC[C@H](NC(=O)[C@H](CC(C)C)NC(=O)NNC(=O)[C@H](Cc1ccccc1)NC(=O)[C@H](CO)NC(=O)[C@H](CC(N)=O)NC(=O)[C@H](Cc1ccc2ccccc2n1)NC(=O)[C@H](CC(N)=O)NC(=O)[C@H](N)Cc1ccc(O)cc1)C(=O)N[C@@H](Cc1ccccc1)C(N)=O) [Compound No. 301: [D-Tyr1,Ala(2-Qui) 3,AzaGly7,Arg(Me)9]MS10] |  |  | 15 | 1 specific activity to metastin (1-54)
